acyl = not defined here
How the values were obtained:
[1] = target: tissue plasminogen activator (t-PA) (human, UniProt P00750 36-562, limits assumed); test: cell-based or functional assay
[2] = target: urokinase-type plasminogen activator (u-PA) (human, UniProt P00749 21-431, limits assumed); test: cell-based or functional assay

Chain of tissue plasminogen activator (t-PA) (P00750 36-562 limits assumed): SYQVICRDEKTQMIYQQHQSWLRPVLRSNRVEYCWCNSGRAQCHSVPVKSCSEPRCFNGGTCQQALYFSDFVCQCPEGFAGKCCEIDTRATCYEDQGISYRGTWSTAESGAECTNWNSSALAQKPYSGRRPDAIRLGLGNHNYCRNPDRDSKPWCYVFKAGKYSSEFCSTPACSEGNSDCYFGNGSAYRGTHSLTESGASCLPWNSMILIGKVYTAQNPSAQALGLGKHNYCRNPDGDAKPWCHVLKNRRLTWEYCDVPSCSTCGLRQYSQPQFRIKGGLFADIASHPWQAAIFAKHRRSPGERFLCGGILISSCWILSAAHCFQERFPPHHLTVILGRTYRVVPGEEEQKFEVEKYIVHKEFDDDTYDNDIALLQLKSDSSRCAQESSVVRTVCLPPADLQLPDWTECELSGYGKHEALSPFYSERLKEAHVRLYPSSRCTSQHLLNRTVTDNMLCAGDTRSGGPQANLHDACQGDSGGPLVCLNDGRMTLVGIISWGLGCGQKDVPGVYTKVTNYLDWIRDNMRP

Binder	t-PA:u-PA Selectivity [1]	u-PA:t-PA Selectivity [2]
LGGSGQRGRKALE [peptide (II) of Table 1, LGGSGQRGRKALE]	47	–
LGGRGRSANAILE [peptide LGGRGRSANAILE]	5.2	0.019
LGGSGRSANAILE [peptide LGGSGRSANAILE]	0.016	63
LGGYGRSANAILE [peptide LGGYGRSANAILE]	5.7	0.018
LGQRGRSANAILE [peptide LGQRGRSANAILE]	19	0.005
LGGSGRNAQVRLE [peptide LGGSGRNAQVRLE]	0.011	89
LGGSGRSATRDLE [peptide LGGSGRSATRDLE]	0.06	16
LGGSGRKASLSLE [peptide LGGSGRKASLSLE]	0.032	31
acyl-SGRS-NH2 (reading uncertain; also: acylated at the amino terminus (acyl group not given here)) [peptide SGRS]	0.3	3.3
acyl-YGRS-NH2 (reading uncertain; also: acylated at the amino terminus (acyl group not given here)) [peptide (V) of Table 1, YGRS]	17	–
acyl-SGKS-NH2 (reading uncertain; also: acylated at the amino terminus (acyl group not given here)) [peptide SGKS]	0.04	23
acyl-SGRSA-NH2 (reading uncertain; also: acylated at the amino terminus (acyl group not given here)) [peptide SGRSA]	0.05	20
acyl-GSGKS-NH2 (reading uncertain; also: acylated at the amino terminus (acyl group not given here)) [peptide GSGKS]	0.008	121
LGGSGERARGALE [peptide (III) of Table 1, LGGSGERARGALE]	13	–
LGGSGHYGRSGLE [peptide (IV) of Table 1, LGGSGHYGRSGLE]	21	–
acyl-RGRK-NH2 (reading uncertain; also: acylated at the amino terminus (acyl group not given here)) [peptide (VI) of Table 1, RGRK]	57	–
acyl-FRGRK-NH2 (reading uncertain; also: acylated at the amino terminus (acyl group not given here)) [peptide (VII) of Table 1, FRGRK]	78	–
KKSPGRVVGGSVAH [peptide (I), native cleavage sequence from plasminogen]	0.33	3
